Laboratory results taken from PMC8809517, “Cofactor-independent RNA editing by a synthetic S-type PPR protein”.

Experiments:
[1] = tested on: GFP-9S motif 4 ID (synthetic construct); test: HRP pulldown; conditions: lysate; HRP: 50 mM Tris pH 8, 150 mM NaCl, 1 mM bME, 50 ug/ml BSA, 3 ug/ml yeast RNA, 0.5% heparin, 2 nM RNA; ITC (25 C) and FP: Tris pH 8, 200 mM KCl, 5% glycerol …
[2] = tested on: GFP-9S motif 4 LD (synthetic construct); test: HRP pulldown; conditions: lysate, HRP: 50 mM Tris pH 8, 150 mM NaCl, 1 mM bME, 50 ug/ml BSA, 3 ug/ml yeast RNA, 0.5% heparin, 2 nM RNA, ITC (25 C) and FP: Tris pH 8, 200 mM KCl, 5% glycerol …
[3] = tested on: GFP-9S motif 4 KD (synthetic construct); test: HRP pulldown; conditions: lysate, HRP: 50 mM Tris pH 8, 150 mM NaCl, 1 mM bME, 50 ug/ml BSA, 3 ug/ml yeast RNA, 0.5% heparin, 2 nM RNA, ITC (25 C) and FP: Tris pH 8, 200 mM KCl, 5% glycerol …
[4] = tested on: GFP-9S motif 4 TD (synthetic construct); test: HRP pulldown; conditions: HRP: 50 mM Tris pH 8, 150 mM NaCl, 1 mM bME, 50 ug/ml BSA, 3 ug/ml yeast RNA, 0.5% heparin, 2 nM RNA; ITC (25 C) and FP: Tris pH 8, 200 mM KCl, 5% glycerol …
[5] = tested on: TRX-9S-S2 (synthetic construct (Selaginella-type S motif consensus)); test: fluorescence polarization; conditions: HRP: 50 mM Tris pH 8, 150 mM NaCl, 1 mM bME, 50 ug/ml BSA, 3 ug/ml yeast RNA, 0.5% heparin, 2 nM RNA; ITC (25 C) and FP: Tris pH 8, 200 mM KCl, 5% glycerol …
[6] = tested on: TRX-9P-S2 (synthetic construct); test: ITC; conditions: HRP: 50 mM Tris pH 8, 150 mM NaCl, 1 mM bME, 50 ug/ml BSA, 3 ug/ml yeast RNA, 0.5% heparin, 2 nM RNA; ITC (25 C) and FP: Tris pH 8, 200 mM KCl, 5% glycerol …
[7] = tested on: TRX-9S-S2 (synthetic construct (Selaginella-type S motif consensus)); test: ITC; conditions: HRP: 50 mM Tris pH 8, 150 mM NaCl, 1 mM bME, 50 ug/ml BSA, 3 ug/ml yeast RNA, 0.5% heparin, 2 nM RNA; ITC (25 C) and FP: Tris pH 8, 200 mM KCl, 5% glycerol …
[8] = tested on: GFP-9S (synthetic construct); test: HRP pulldown; conditions: HRP: 50 mM Tris pH 8, 150 mM NaCl, 1 mM bME, 50 ug/ml BSA, 3 ug/ml yeast RNA, 0.5% heparin, 2 nM RNA; ITC (25 C) and FP: Tris pH 8, 200 mM KCl, 5% glycerol …
[9] = tested on: TRX-9P-S2 (synthetic construct); test: HRP pulldown; conditions: HRP: 50 mM Tris pH 8, 150 mM NaCl, 1 mM bME, 50 ug/ml BSA, 3 ug/ml yeast RNA, 0.5% heparin, 2 nM RNA; ITC (25 C) and FP: Tris pH 8, 200 mM KCl, 5% glycerol …
[10] = tested on: TRX-9S-S2 (synthetic construct (Selaginella-type S motif consensus)); test: HRP pulldown; conditions: HRP: 50 mM Tris pH 8, 150 mM NaCl, 1 mM bME, 50 ug/ml BSA, 3 ug/ml yeast RNA, 0.5% heparin, 2 nM RNA; ITC (25 C) and FP: Tris pH 8, 200 mM KCl, 5% glycerol …
[11] = tested on: TRX-AviTag-9S-S2 (synthetic construct); test: HRP pulldown; conditions: HRP: 50 mM Tris pH 8, 150 mM NaCl, 1 mM bME, 50 ug/ml BSA, 3 ug/ml yeast RNA, 0.5% heparin, 2 nM RNA; ITC (25 C) and FP: Tris pH 8, 200 mM KCl, 5% glycerol …
[12] = tested on: TRX-9S-E2 (synthetic construct); test: MST; conditions: HRP: 50 mM Tris pH 8, 150 mM NaCl, 1 mM bME, 50 ug/ml BSA, 3 ug/ml yeast RNA, 0.5% heparin, 2 nM RNA; ITC (25 C) and FP: Tris pH 8, 200 mM KCl, 5% glycerol …
[13] = target: T1, 9S-S2 PPR (synthetic construct); test: fluorescence polarization; HRP: 50 mM Tris pH 8, 150 mM NaCl, 1 mM beta-mercaptoethanol, 50 ug/ml BSA, 3 ug/ml yeast RNA, 0.5% heparin; ITC and FP: Tris pH 8, 200 mM KCl, 5% glycerol; MST: 50 mM Tris pH 8, 200 mM NaCl, 1 mM DTT, BSA, heparin, 0.05% Tween 20; conditions: protein: recombinant; tags: N-terminal TRX-His; label: fluorescein
T1 chain: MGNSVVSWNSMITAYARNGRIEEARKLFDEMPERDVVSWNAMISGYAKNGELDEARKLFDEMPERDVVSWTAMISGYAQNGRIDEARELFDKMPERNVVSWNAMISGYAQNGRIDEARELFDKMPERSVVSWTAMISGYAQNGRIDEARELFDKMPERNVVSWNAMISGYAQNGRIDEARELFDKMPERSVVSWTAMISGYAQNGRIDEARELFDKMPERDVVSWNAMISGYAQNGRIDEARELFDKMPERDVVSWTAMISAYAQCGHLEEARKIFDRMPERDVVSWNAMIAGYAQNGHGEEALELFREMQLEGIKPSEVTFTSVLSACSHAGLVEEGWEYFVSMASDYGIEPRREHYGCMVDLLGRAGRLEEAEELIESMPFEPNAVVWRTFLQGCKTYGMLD

[14] = target: T1, 9S-S2 PPR; test: high-throughput RNA pulldown on Ni-NTA beads; HRP: 50 mM Tris pH 8, 150 mM NaCl, 1 mM beta-mercaptoethanol, 50 ug/ml BSA, 3 ug/ml yeast RNA, 0.5% heparin; ITC and FP: Tris pH 8, 200 mM KCl, 5% glycerol; MST: 50 mM Tris pH 8, 200 mM NaCl, 1 mM DTT, BSA, heparin, 0.05% Tween 20; conditions: protein: recombinant; tags: N-terminal TRX-His; label: 5' Cy5
[15] = target: T1, 9S-S2 PPR; test: isothermal titration calorimetry; HRP: 50 mM Tris pH 8, 150 mM NaCl, 1 mM beta-mercaptoethanol, 50 ug/ml BSA, 3 ug/ml yeast RNA, 0.5% heparin; ITC and FP: Tris pH 8, 200 mM KCl, 5% glycerol; MST: 50 mM Tris pH 8, 200 mM NaCl, 1 mM DTT, BSA, heparin, 0.05% Tween 20; conditions: protein: recombinant; tags: N-terminal TRX-His
[16] = target: T2, 9P-S2 (synthetic construct); test: as above; conditions: protein: recombinant; tags: N-terminal TRX-His
T2 chain: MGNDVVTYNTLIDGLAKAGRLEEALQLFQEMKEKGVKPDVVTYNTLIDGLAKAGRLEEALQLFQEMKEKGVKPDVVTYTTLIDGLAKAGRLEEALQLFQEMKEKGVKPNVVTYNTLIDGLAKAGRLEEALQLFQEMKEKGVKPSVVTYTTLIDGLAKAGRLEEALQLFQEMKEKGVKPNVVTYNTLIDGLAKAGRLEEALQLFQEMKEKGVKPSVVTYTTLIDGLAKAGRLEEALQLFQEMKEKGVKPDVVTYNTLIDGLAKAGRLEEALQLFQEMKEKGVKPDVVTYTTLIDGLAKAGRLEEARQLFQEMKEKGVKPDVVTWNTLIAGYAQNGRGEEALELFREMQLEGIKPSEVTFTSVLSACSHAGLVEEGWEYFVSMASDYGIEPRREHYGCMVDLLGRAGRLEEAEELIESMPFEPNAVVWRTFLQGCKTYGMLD

[17] = Kd above 200 nM called unreliable

With AUUAGACGUGA [Cy5-rpoA-G] the Kd [1] was 0.127 µM, the Kd [2] was 0.183 µM and the Kd [3, 17] was 0.315 µM. For the same molecule, the Kd [4] was 0.014 µM.

AUUACACGUG [rpoA (FP)] gave a Kd [5] of 0.0076 µM.

With UUACACGUG [rpoA footprint (ITC)] the Kd [6] was 0.239 µM and the Kd [7] was 0.048 µM.

For AUUAAACGUGA [IR-rpoA-A], the Kd [1] was 0.175 µM, the Kd [2, 17] was 0.452 µM and the Kd [3, 17] was 0.409 µM.

With AUUACACGUGA [Cy5-rpoA] the Kd [8] was 0.012 µM, the Kd [1] was 0.153 µM and the Kd [2, 17] was 0.214 µM. The Kd [3] was 0.189 µM, the Kd [9] was 0.068 µM and the Kd [4] was 0.28 µM. For the same molecule, the Kd [10] was 0.0064 µM, the Kd [11] was 0.0053 µM and the Kd [12] was 0.0068 µM.

For AUUAUACGUGA [IR-rpoA-U], the Kd [1] was 0.0535 µM, the Kd [2] was 0.0663 µM and the Kd [3, 17] was 0.279 µM.

Molecule AUUACACGUG (ssRNA) [rpoA (FP)] has a Kd [13] of 0.0076 µM.

CAGCAACAGAAGCCCAAGCUCAUGGA (ssRNA) [Cy5-clpP (clpP1)]: no binding [14].

In the case of UUACACGUG (ssRNA) [rpoA footprint (ITC)], the Kd [15] is reported as 0.048 µM and the Kd [16] is reported as 0.239 µM.
